Test results as given in PMC3856478 (2013).

Target: T1, Colicin E9 OBS1 peptide 2-18 (Escherichia coli, UniProt P09883)
T1 chain: SGGDGRGHNTGAHSTSG
Experiment: ITC

B1: OmpF (protein)
chain: AEIYNKDGNKVDLYGKAVGLHYFSKGNGENSYGGNGDMTYARLGFKGETQINSDLTGYGQWEYNFQGNNSEGADAQTGNKTRLAFAGLKYADVGSFDYGRNYGVVYDALGYTDMLPEFGGDTAYSDDFFVGRVGGVATYRNSNFFGLVDGLNFAVQYLGKNERDTARRSNGDGVGGSISYEYEGFGIVGAYGAADRTNLQEAQPLGNGKKAEQWATGLKYDANNIYLAANYGETRNATPITNKFTNTSGFANKTQDVLLVAQYQFDFGLRPSIAYTKSKAKDVEGIGDVDLVNYFEVGATYYFNKNMSTYVDYIINQIDSDNKLGVGSDDTVAVGIVYQF
With B1 as the binder, how does the Kd read?
The Kd was roughly 1000 nM.
